Biological target: integrin αvβ3 expressed on cells (human) (UniProt P06756)
Experiment: cell-based or functional assay

Chain of integrin αvβ3 expressed on cells (human) (P06756 31-1048, chain 1 of 2): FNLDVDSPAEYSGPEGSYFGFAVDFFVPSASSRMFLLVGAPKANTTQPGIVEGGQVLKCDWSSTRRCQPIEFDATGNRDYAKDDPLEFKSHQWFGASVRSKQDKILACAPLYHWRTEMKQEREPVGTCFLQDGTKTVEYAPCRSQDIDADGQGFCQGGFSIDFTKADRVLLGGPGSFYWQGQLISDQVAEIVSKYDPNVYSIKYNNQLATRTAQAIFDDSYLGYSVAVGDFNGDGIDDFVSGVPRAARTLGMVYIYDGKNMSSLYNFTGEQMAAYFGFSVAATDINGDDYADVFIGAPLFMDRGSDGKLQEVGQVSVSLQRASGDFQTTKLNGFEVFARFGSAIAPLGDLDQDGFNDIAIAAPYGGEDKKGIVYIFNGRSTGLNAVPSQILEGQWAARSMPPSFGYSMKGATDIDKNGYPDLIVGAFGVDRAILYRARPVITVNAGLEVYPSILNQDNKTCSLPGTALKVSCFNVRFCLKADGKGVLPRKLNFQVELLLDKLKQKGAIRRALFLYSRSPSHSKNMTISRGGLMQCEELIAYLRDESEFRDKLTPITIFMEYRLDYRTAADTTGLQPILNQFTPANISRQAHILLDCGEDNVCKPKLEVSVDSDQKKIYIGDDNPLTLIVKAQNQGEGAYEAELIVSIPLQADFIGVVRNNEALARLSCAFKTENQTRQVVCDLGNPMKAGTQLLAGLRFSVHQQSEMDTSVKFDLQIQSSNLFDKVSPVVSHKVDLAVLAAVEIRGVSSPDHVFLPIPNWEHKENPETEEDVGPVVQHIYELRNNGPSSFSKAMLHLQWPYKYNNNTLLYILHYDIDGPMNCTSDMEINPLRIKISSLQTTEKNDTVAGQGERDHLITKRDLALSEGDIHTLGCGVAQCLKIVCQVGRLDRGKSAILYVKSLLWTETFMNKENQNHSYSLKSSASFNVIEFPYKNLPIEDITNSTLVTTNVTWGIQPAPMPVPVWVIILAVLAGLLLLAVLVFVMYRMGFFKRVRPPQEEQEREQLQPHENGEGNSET
Chain of integrin αvβ3 expressed on cells (human) (P05106 27-788, chain 2 of 2, further chain): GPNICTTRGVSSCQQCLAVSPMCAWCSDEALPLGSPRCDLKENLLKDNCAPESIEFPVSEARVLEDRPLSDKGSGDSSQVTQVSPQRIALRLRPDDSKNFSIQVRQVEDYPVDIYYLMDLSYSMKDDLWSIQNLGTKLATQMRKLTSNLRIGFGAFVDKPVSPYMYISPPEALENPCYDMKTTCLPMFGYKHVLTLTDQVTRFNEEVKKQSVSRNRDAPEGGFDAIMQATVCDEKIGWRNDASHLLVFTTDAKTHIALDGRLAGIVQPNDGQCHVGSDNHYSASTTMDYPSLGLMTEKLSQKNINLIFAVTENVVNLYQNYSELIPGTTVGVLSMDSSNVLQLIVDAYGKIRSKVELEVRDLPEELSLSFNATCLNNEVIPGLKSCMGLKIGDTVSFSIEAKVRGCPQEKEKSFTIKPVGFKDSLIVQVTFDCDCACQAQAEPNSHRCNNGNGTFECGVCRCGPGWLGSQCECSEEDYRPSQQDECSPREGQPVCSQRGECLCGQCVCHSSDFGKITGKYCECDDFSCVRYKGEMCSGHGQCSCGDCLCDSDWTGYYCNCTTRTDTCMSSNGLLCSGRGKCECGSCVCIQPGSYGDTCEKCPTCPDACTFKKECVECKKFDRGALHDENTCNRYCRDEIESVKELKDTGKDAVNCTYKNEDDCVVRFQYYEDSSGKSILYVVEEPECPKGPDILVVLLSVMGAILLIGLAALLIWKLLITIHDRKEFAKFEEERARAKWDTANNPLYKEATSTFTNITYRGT

- inhibition of vitronectin-induced migration of endothelial cells (transwell): 60%
- inhibitory concentration for 50% maximal adhesion (M21 cell adhesion to fibrinogen): 50 ng/mL
Substance: monoclonal antibody LM609 (murine IgG)
